Data on three molecules can be found in patent US20210332382A1.

The chains are these.
B1: PEP1456 = …-… (9K-MAGE-A3 peptide, MAGE-A3 161-180 with a 9-lysine tail at the amino terminus) (peptide)
peptide: KKKKKKKKKVFGIELMEVDPIGHLYIFAT
B2: PEP1455 = KKKKKK-… (6K-MAGE-A3 peptide, MAGE-A3 161-180 with a 6-lysine tail at the amino terminus) (peptide)
peptide: KKKKKKVFGIELMEVDPIGHLYIFAT
B3: PEP1508 = KKKKKK-… (6K-NY-ESO-1 peptide p91-110, NY-ESO-1 91-110 with a 6-lysine tail at the amino terminus) (peptide)
peptide: KKKKKKYLAMPFATPMEAELARRSLA

The first assay concerns the target Adenovirus delta 24, serotype 5 virus with a modified knob from serotype 3 adenovirus (AdV 5/3), whole virus particles. The experiment in a line: MP-SPR, peptide over AdV on APTES sensor, water, Max (100 µM peptide in solution).
Turning to B1, the Adsorbed Peptides SPR response is 0.13 Δ°, the Mass Peptide stood at 0.61 ng, the Mass/Area Peptide was determined as 78.2 ng/cm^2 and the Moles peptide was found to be 1.8e-13 mol.
As to B2, the Adsorbed Peptides SPR response was 0.153 Δ°, the Mass Peptide was 0.72 ng, the Mass/Area Peptide came out at 91.9 ng/cm^2 and the Moles peptide turned out to be 2.38e-13 mol.
Consider B3, for which the Adsorbed Peptides SPR response was 0.0386 Δ°, the Mass Peptide worked out at 0.18 ng, the Mass/Area Peptide was determined as 23.2 ng/cm^2 and the Moles peptide worked out at 6.05e-14 mol.

The next assay has the same target. The assay can be described thus: MP-SPR, peptide over AdV on APTES sensor, A195 buffer, Max (100 µM peptide in solution).
Regarding B1, the Adsorbed Peptides SPR response was 0.371 Δ°, the Mass Peptide was 1.75 ng, the Mass/Area Peptide is 223 ng/cm^2 and the Moles peptide is 5.12e-13 mol.
The matching figures for B2: 0.078 Δ°, 0.37 ng, 46.8 ng/cm^2 and 1.21e-13 mol.
The matching figures for B3: 0.044 Δ°, 0.21 ng, 26.4 ng/cm^2 and 6.89e-14 mol.

A further assay shares this target. The assay can be described thus: MP-SPR, peptide over AdV on APTES sensor, water, Min (after flush, no peptide in solution).
Regarding B1, the Adsorbed Peptides SPR response is 0.029 Δ°, the Mass Peptide stood at 0.14 ng, the Mass/Area Peptide came out at 17.4 ng/cm^2 and the Moles peptide amounted to 4e-14 mol.
In the same order, the values of B2 are 0.0674 Δ°, 0.32 ng, 40.4 ng/cm^2 and 1.05e-13 mol.
The matching figures for B3: 0.0184 Δ°, 0.09 ng, 11 ng/cm^2 and 2.88e-14 mol.

For a further assay the target is unchanged. The assay can be described thus: MP-SPR, peptide over AdV on APTES sensor, A195 buffer, Min (after flush, no peptide in solution).
B1: the Adsorbed Peptides SPR response is 0.276 Δ°, the Mass Peptide turned out to be 1.3 ng, the Mass/Area Peptide was 166 ng/cm^2 and the Moles peptide was determined as 3.81e-13 mol.
With B2, the Adsorbed Peptides SPR response is 0.0174 Δ°, the Mass Peptide came out at 0.08 ng, the Mass/Area Peptide worked out at 10.4 ng/cm^2 and the Moles peptide came out at 2.7e-14 mol.
In the same order, the values of B3 are 0.012 Δ°, 0.06 ng, 7.2 ng/cm^2 and 1.88e-14 mol.
